Measured values reported in publication PMC9604360 (2022).

Biological target: T1, Ribonuclease A (scrambled, oxidized) (Bos taurus, UniProt P61823)
T1 chain: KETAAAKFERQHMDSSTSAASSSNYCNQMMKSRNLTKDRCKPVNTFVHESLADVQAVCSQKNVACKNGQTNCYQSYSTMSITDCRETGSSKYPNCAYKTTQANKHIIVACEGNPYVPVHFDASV
Assay: intrinsic fluorescence quenching

B1: MET 25-932 (protein)
chain: ECKEALAKSEMNVNMKYQLPNFTAETPIQNVILHEHHIFLGATNYIYVLNEEDLQKVAEYKTGPVLEHPDCFPCQDCSSKANLSGGVWKDNINMALVVDTYYDDQLISCGSVNRGTCQRHVFPHNHTADIQSEVHCIFSPQIEEPSQCPDCVVSALGAKVLSSVKDRFINFFVGNTINSSYFPDHPLHSISVRRLKETKDGFMFLTDQSYIDVLPEFRDSYPIKYVHAFESNNFIYFLTVQRETLDAQTFHTRIIRFCSINSGLHSYMEMPLECILTEKRKKRSTKKEVFNILQAAYVSKPGAQLARQIGASLNDDILFGVFAQSKPDSAEPMDRSAMCAFPIKYVNDFFNKIVNKNNVRCLQHFYGPNHEHCFNRTLLRNSSGCEARRDEYRTEFTTALQRVDLFMGQFSEVLLTSISTFIKGDLTIANLGTSEGRFMQVVVSRSGPSTPHVNFLLDSHPVSPEVIVEHTLNQNGYTLVITGKKITKIPLNGLGCRHFQSCSQCLSAPPFVQCGWCHDKCVRSEECLSGTWTQQICLPAIYKVFPNSAPLEGGTRLTICGWDFGFRRNNKFDLKKTRVLLGNESCTLTLSESTMNTLKCTVGPAMNKHFNMSIIISNGHGTTQYSTFSYVDPVITSISPKYGPMAGGTLLTLTGNYLNSGNSRHISIGGKTCTLKSVSNSILECYTPAQTISTEFAVKLKIDLANRETSIFSYREDPIVYEIHPTKSFISGGSTITGVGKNLNSVSVPRMVINVHEAGRNFTVACQHRSNSEIICCTTPSLQQLNLQLPLKTKAFFMLDGILSKYFDLIYVHNPVFKPFEKPVMISMGNENVLEIKGNDIDPEAVKGEVLKVGNKSCENIHLHSEAVLCTVPNDLLKLNSELNIEWKQAISSTVLGKVIVQPDQNFT
modifications: scrambled disulfides of RNase A
Kd: ~300 nM
